B1: native human Ang2 (ligand, UniProt O15123-3 19-495, looked up)
chain: YNNFRKSMDSIGKKQYQVQHGSCSYTFLLPEMDNCRSSSSPYVSNAVQRDAPLEYDDSVQRLQVLENIMENNTQWLMKLENYIQDNMKKEMVEIQQNAVQNQTAVMIEIGTNLLNQTAEQTRKLTDVEAQVLNQTTRLELQLLEHSLSTNKLEKQILDQTSEINKLQDKNSFLEKKVLAMEDKHIIQLQSIKEEKDQLQVLVSKQNSIIEELEKKIVTATVNNSVLQKQQHDLMETVNNLLTMMSTSNSKDPTVAKEEQISFRDCAEVFKSGHTTNGIYTLTFPNSTEEIKAYCDMEAGGGGWTIIQRREDGSVDFQRTWKEYKVGFGNPSGEYWLGNEFVSQLTNQQRYVLKIHLKDWEGNEAYSLYEHFYLSSEELNYRIHLKGLTGTAGKISSISQPGNDFSTKDGDNDKCICKCSQMLTGGWWFDACGPSNLNGMYYPQRQNTNKFNGIKWYYWKGSGYSLKATTMMIRPADF
notes: Angiopoietin-2, human, 'native' as against the chimeric FD forms; also called Angiopoietin-2; source: bought: R&D Systems
B2: native human Ang1 (ligand, UniProt Q15389 16-498, looked up)
chain: HIGCSNQRRSPENSGRRYNRIQHGQCAYTFILPEHDGNCRESTTDQYNTNALQRDAPHVEPDFSSQKLQHLEHVMENYTQWLQKLENYIVENMKSEMAQIQQNAVQNHTATMLEIGTSLLSQTAEQTRKLTDVETQVLNQTSRLEIQLLENSLSTYKLEKQLLQQTNEILKIHEKNSLLEHKILEMEGKHKEELDTLKEEKENLQGLVTRQTYIIQELEKQLNRATTNNSVLQKQQLELMDTVHNLVNLCTKEGVLLKGGKREEEKPFRDCADVYQAGFNKSGIYTIYINNMPEPKKVFCNMDVNGGGWTVIQHREDGSLDFQRGWKEYKMGFGNPSGEYWLGNEFIFAITSQRQYMLRIELMDWEGNRAYSQYDRFHIGNEKQNYRLYLKGHTGTAGKQSSLILHGADFSTKDADNDNCMCKCALMLTGGWWFDACGPSNLNGMFYTAGQNHGKLNGIKWHYFKGPSYSLRSTTMMIRPLDF
notes: Angiopoietin-1, human, 'native' as against the chimeric FD forms; also called Angiopoietin-1; source: bought: R&D Systems
B3: Ang1-FD-Fc (Fc fusion, human, UniProt Q15389 277-498, looked up)
chain: REEEKPFRDCADVYQAGFNKSGIYTIYINNMPEPKKVFCNMDVNGGGWTVIQHREDGSLDFQRGWKEYKMGFGNPSGEYWLGNEFIFAITSQRQYMLRIELMDWEGNRAYSQYDRFHIGNEKQNYRLYLKGHTGTAGKQSSLILHGADFSTKDADNDNCMCKCALMLTGGWWFDACGPSNLNGMFYTAGQNHGKLNGIKWHYFKGPSYSLRSTTMMIRPLDF
notes: Used at 1 ug/ml in the screen; also called fibrinogen-like domain (FD) of Ang1 fused to a human Fc tag
B4: Ang2-FD-Fc (Fc fusion, human, UniProt O15123-3 19-495, looked up)
chain: KEEQISFRDCAEVFKSGHTTNGIYTLTFPNSTEEIKAYCDMEAGGGGWTIIQRREDGSVDFQRTWKEYKVGFGNPSGEYWLGNEFVSQLTNQQRYVLKIHLKDWEGNEAYSLYEHFYLSSEELNYRIHLKGLTGTAGKISSISQPGNDFSTKDGDNDKCICKCSQMLTGGWWFDACGPSNLNGMYYPQRQNTNKFNGIKWYYWKGSGYSLKATTMMIRPADF
notes: Angiopoietin-2 (Ang2, ANGPT2), fibrinogen-like domain (FD); Detected with anti-human Fc

Columns and labels:
[1] = target: T1, soluble extracellular domain of human TM (human, UniProt P07204 19-515); assay: pull-down; 100 nM His-tagged TM extracellular domain with 5 nM thrombin and 0.25, 0.5 or 1.0 uM native Ang1, Ang2 or Ang4 (control), 60 minutes on ice, 0.15 M NaCl, 20 mM Tris pH 7.5, 0.1% Triton X-100, 2 mM CaCl2, 1 mg/ml BSA; TM collected on Ni-NTA beads, western blot; details: both partners purified
T1 construct: Thrombomodulin, human, soluble extracellular domain; also called soluble TM; source: bought: R&D Systems
T1 sequence (P07204 19-515): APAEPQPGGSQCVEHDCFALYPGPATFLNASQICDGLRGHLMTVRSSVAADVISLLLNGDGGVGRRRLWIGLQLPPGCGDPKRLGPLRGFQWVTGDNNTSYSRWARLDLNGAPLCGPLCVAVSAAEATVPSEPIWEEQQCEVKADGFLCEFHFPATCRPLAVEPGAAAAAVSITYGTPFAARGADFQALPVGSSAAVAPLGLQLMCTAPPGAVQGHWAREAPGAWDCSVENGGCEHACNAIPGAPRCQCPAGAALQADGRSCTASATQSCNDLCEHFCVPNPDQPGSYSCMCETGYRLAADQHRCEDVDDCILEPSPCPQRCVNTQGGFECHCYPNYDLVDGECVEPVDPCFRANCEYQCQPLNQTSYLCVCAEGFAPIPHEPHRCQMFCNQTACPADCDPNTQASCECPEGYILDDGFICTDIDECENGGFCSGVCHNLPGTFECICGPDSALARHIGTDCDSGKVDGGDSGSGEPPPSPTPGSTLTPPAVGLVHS

[2] = target: T2, Thrombomodulin (TM) expressed on COS cells (human, UniProt P07204 19-575); assay: cell-surface binding assay (alkaline phosphatase-conjugated anti-human Fc, OD405); COS cells transfected with TM in 48-well plates, varying concentrations of FD-Fc in PBS/10% calf serum, 30 minutes at room temperature; specific binding = TM-transfected minus empty vector; apparent affinities; details: one partner purified
T2 construct: Thrombomodulin; cDNA isolated from expression libraries of HUVECs and EA.hy926 cells; Also used as the target of the functional rows on HUVECs (endogenous TM there); source: COS cells, transfected, on cells
T2 sequence (P07204 19-575): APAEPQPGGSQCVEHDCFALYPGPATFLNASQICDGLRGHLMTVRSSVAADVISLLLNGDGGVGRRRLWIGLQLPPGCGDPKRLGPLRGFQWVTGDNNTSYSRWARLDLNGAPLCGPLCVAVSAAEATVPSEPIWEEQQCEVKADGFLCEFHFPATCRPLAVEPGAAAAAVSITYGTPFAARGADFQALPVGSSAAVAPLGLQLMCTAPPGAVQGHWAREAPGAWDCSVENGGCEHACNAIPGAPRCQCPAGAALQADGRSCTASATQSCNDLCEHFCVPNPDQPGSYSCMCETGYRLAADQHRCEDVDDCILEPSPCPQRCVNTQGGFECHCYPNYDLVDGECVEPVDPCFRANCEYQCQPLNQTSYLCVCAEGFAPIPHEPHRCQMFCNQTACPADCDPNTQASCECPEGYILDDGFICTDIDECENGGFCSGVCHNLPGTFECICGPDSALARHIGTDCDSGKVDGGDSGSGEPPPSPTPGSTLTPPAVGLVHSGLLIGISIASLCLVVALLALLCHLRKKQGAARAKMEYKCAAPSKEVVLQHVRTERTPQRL

Binder | Kd [2] [nM] | other results
B1 | – | percent inhibition of thrombin/TM complex formation at 1 uM Ang2 [1]: ~80%
B2 | – | binding result [1]: binds
B3 | ~88 | –
B4 | ~8.3 | –
